Reference: patent CN109734803A (ZONHON BIOPHARMA INST INC, dated 2019)

T1: 重组人MYO(大肠杆菌重组表达，本公司制备) (human, UniProt P02144 2-154)
T1 construct: The background describes myoglobin as one chain of 153 residues with a haem group; also called 重组MYO; 人肌红蛋白
T1 sequence (looked up): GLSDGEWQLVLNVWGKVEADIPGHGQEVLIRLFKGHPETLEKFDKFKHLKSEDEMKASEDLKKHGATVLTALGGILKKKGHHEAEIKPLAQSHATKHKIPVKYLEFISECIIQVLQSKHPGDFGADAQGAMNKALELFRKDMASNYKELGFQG


Key:
重组人MYO(大肠杆菌重组表达，本公司制备) [1] = target: T1, 重组人MYO(大肠杆菌重组表达，本公司制备); assay: indirect ELISA, recombinant human MYO coated at 1 μg/mL, hybridoma supernatant, HRP goat anti-mouse IgG
重组人MYO(大肠杆菌重组表达，本公司制备) [2] = target: T1, 重组人MYO(大肠杆菌重组表达，本公司制备); assay: Western blot, recombinant MYO on nitrocellulose, HRP-labelled M08 at 1:1000
重组人MYO(大肠杆菌重组表达，本公司制备) [3] = target: T1, 重组人MYO(大肠杆菌重组表达，本公司制备); assay: Western blot, recombinant MYO on nitrocellulose, HRP-labelled M26 at 1:1000

Binder | binding result (重组人MYO(大肠杆菌重组表达，本公司制备) [1]) | further results
杂交瘤细胞株M08的抗人MYO抗体 (antibody, V domains shown, Mouse hybridoma culture supernatant, detected with HRP goat anti-mouse IgG; also called 抗人肌红蛋白抗体(M08)) VH: QVQLQQSGAELAKPGASVKMSCKASGYTFTSYWMHWVKQRPGQGLEWIGYIKPNTDYTEYNQKFKDKATLTADKSSSTAYMQLSSLTSEDSAVYYCTRIRGYALDYWGQGTSVTVSS VL: DIVMTQSPSSLTVTAGEKVTMICKSSQSLLNSGNQKNYLTWYQQKPGQPPKLLIYWASTRESGVPDRFTGSGSGTDFTLTISSVQAEDLAVYYCQNDYNFPLTFGAGTKLELK | binds | 
杂交瘤细胞株M26的抗人MYO抗体 (antibody, V domains shown, Mouse hybridoma culture supernatant, detected with HRP goat anti-mouse IgG; also called 抗人肌红蛋白抗体(M26)) VH: QVQLQQSGDDLVKPGASVKLSCKASGYTFTSYWINWIKQRPGQGLEWIGRIAPEGDSTYYNEMFKGKATLTVDTSSSTAYIQLSSLSSEDSAVYFCAREVRNAMDYWGQGTSVTVSS VL: DIQMNQSPSSLSASLGDTITITCHASQNIHVWLSWYLQKPGNITKLLIYEASNLHTGVPSRFSGSGSGTGFTLTISSLQPEDIATYYCQQGQRYPLTFGGGTKLEIK | binds | 
单链抗体M08 (scFv, VH and VL of M08 joined by a (GGGGS)3 linker, expressed in E. coli and purified on HisTrap; HRP-labelled in the Western blot; coupled to time-resolved fluorescent microspheres in the test card; also called M08-scFv; M08-HRP; not shown: Histidine tag introduced downstream of the gene) scFv: QVQLQQSGAELAKPGASVKMSCKASGYTFTSYWMHWVKQRPGQGLEWIGYIKPNTDYTEYNQKFKDKATLTADKSSSTAYMQLSSLTSEDSAVYYCTRIRGYALDYWGQGTSVTVSSGGGGSGGGGSGGGGSDIVMTQSPSSLTVTAGEKVTMICKSSQSLLNSGNQKNYLTWYQQKPGQPPKLLIYWASTRESGVPDRFTGSGSGTDFTLTISSVQAEDLAVYYCQNDYNFPLTFGAGTKLELK |  | binding result (重组人MYO(大肠杆菌重组表达，本公司制备) [2]): binds
单链抗体M26 (scFv, VH and VL of M26 joined by a (GGGGS)3 linker, expressed in E. coli and purified on HisTrap; HRP-labelled in the Western blot; coated on the T line of the nitrocellulose membrane in the test card; also called M26-scFv; M26-HRP; not shown: Histidine tag introduced downstream of the gene) scFv: QVQLQQSGDDLVKPGASVKLSCKASGYTFTSYWINWIKQRPGQGLEWIGRIAPEGDSTYYNEMFKGKATLTVDTSSSTAYIQLSSLSSEDSAVYFCAREVRNAMDYWGQGTSVTVSSGGGGSGGGGSGGGGSDIQMNQSPSSLSASLGDTITITCHASQNIHVWLSWYLQKPGNITKLLIYEASNLHTGVPSRFSGSGSGTGFTLTISSLQPEDIATYYCQQGQRYPLTFGGGTKLEIK |  | binding result (重组人MYO(大肠杆菌重组表达，本公司制备) [3]): binds
